Measured values: paper PMC10670289, “Characterization and Molecular Dynamics Simulation of a Lipase Capable of Improving the Functional Characteristics of an Egg-Yolk-Contaminated Liquid Egg White” (Foods, 2023)

Columns and labels:
Assay in all cases: purified protein
Assay type in all cases: biochemical, Bacillus subtilis
Conditions in all cases: 30 °C, pH 9.0
purified protein [1] = substrate: CCCCCCCCCCCC(=O)Oc1ccc([N+](=O)[O-])cc1
purified protein [2] = substrate: CCCCCCCCCCCCCCCCCC(=O)Oc1ccc([N+](=O)[O-])cc1
purified protein [3] = substrate: CCCCCCCCCCCCCCCC(=O)Oc1ccc([N+](=O)[O-])cc1
purified protein [4] = substrate: CCCCCCCCCCCCCC(=O)Oc1ccc([N+](=O)[O-])cc1
purified protein [5] = substrate: CCCCCCCC(=O)Oc1ccc([N+](=O)[O-])cc1
purified protein [6] = substrate: CCCCCCCCCC(=O)Oc1ccc([N+](=O)[O-])cc1
purified protein [7] = substrate: CCCCCC(=O)Oc1ccc([N+](=O)[O-])cc1

B1: Lip-IM (Bacillus subtilis subsp. subtilis str. 168) (protein)
chain: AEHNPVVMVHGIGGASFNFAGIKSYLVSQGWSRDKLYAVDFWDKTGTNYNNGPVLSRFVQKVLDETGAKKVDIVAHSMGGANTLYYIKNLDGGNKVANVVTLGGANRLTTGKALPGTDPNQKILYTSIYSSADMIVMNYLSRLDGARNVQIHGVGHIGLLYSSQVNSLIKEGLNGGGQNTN
notes: 22 kDa by SDS-PAGE
Km (purified protein [1]): 5.96 ± 0.08 mM
Vmax (purified protein [1]): 204 µM/min
Km (purified protein [2]): 6.26 ± 0.07 mM
Vmax (purified protein [2]): 292 µM/min
Km (purified protein [3]): 9.26 ± 0.09 mM
Vmax (purified protein [3]): 150 µM/min
Km (purified protein [4]): 5.12 ± 0.09 mM
Vmax (purified protein [4]): 214 µM/min
Km (purified protein [5]): 4.21 ± 0.09 mM
Vmax (purified protein [5]): 236 µM/min
Km (purified protein [6]): 5.23 ± 0.04 mM
Vmax (purified protein [6]): 184 µM/min
Km (purified protein [7]): 3.92 ± 0.06 mM
Vmax (purified protein [7]): 233 µM/min
